In PMC9041834, “Ubiquitin ligase activity inhibits Cdk5 to control axon termination” (PLoS Genetics, 2022):

Target: T1, GFP::FSN-1 CRISPR (endogenous FSN-1 N-terminally fused with GFP) (C. elegans, UniProt Q18223 1-332)
T1 construct: FSN-1, F-box protein of C. elegans (orthologue of human FBXO45), expressed from the endogenous locus; also called bgg47; source: C. elegans, endogenous locus tagged by CRISPR/Cas9, in whole animal lysate; not shown: GFP, N-terminal, kept
T1 sequence (looked up): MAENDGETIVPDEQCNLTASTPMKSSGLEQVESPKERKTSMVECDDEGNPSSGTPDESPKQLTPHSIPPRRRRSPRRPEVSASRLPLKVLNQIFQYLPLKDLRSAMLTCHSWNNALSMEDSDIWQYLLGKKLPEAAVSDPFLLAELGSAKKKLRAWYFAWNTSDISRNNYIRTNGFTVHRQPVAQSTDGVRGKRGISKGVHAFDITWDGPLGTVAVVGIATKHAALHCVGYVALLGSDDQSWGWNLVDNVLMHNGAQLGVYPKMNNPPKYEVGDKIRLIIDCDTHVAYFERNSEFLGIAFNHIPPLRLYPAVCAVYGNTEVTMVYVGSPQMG
Assay: co-IP; CRISPR-tagged endogenous proteins in whole animal lysates of C. elegans (wild-type background, and rpm-1 LD CRISPR background for the FSN-1 pair); 50 mM Tris HCl pH 7.5, 150 mM NaCl, 1.5 mM MgCl2, 10% glycerol, 0.1% NP-40, 1 mM DTT; anti-FLAG or anti-GFP, protein-G agarose 4 h at 4°C; immunoblot
Details: partners not purified

B1: CDK-5::3xFLAG CRISPR (endogenous CDK-5 C-terminally tagged with 3xFLAG) (enzyme)
chain: not shown
notes: CDK-5, serine/threonine kinase of C. elegans (Cdk5 orthologue), expressed from the endogenous locus; also called CDK-5::FLAG; CDK-5::FLAG CRISPR; source: C. elegans, endogenous locus tagged by CRISPR/Cas9, in whole animal lysate; not shown: 3xFLAG, C-terminal, kept
In the case of B1, the “fold change of co-precipitated CDK-5::FLAG, rpm-1 LD CRISPR background against wild-type background” value is reported as ~6 fold.
